The test has as its target T1, Recombinant biotinylated human P-Selectin protein (human, UniProt P16109 42-771, limits assumed, biotinylated (site not stated)).
T1 sequence (looked up): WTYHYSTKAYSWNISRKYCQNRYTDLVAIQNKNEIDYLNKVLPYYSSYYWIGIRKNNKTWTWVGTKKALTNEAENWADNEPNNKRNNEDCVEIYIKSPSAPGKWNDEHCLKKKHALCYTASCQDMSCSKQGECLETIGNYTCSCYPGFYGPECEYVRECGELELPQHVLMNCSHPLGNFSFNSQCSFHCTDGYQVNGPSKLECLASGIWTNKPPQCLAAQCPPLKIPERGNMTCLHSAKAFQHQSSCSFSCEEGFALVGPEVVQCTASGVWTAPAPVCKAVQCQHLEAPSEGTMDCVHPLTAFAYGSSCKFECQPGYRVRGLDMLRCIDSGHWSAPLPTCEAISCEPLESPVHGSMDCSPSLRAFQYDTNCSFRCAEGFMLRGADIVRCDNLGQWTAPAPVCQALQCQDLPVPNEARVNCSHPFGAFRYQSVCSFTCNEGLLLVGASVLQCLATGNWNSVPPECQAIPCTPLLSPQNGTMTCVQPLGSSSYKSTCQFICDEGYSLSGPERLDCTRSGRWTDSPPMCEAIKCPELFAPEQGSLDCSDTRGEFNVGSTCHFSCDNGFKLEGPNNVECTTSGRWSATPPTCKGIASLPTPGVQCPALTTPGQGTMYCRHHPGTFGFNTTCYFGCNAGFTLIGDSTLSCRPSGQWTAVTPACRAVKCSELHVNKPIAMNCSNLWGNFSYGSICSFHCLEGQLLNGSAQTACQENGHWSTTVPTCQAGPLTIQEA
Description: SPR (Biacore), biotinylated human P-selectin captured on streptavidin chip, peptide as analyte; peptide BCY5455, a separate peptide number. On the procedure: Biacore experiments were performed to determine ka (M−1s−1), kd (s−1), KD (nM) values of monomeric peptides binding to human Selectin proteins. Recombinant biotinylated human P-Selectin protein was used. For analysis of binding, either a Biacore 3000 or 5200 instrument was used with a CMS sensor chip (GE Healthcare). For sensor chip surface preparation, streptavidin was immobilized on the chip using standard amine-coupling chemistry at 25° C. with HBS-N (10 mM HEPES, 0.15 M NaCl, pH 7.4) as the running buffer. The carboxymethyl dextran surface was activated with a 12 min injection of a 1:1 ratio of 0.4 M 1-ethyl-3-(3-dim ethyl aminopropyl) carbodiimide hydrochloride (EDC)/0.1 M N-hydroxy succinimide (NHS) at a flow rate of 10 μl/min. For capture of streptavidin, protein was diluted to 0.2 mg/ml in 10 mM sodium acetate (pH 4.5) and captured by injecting 70 μl onto the activated chip surface. Residual activated groups were blocked with a 7 min injection of 1 M ethanolamine (pH 8.5). Biotinylated protein stock was diluted 1:100 in HBS-N and captured on one flow cell at 5 μl/min to a level of 1000-1500 RU. Buffer was changed to PBS/0.05% Tween 20 and a dilution series of the peptides was prepared in this buffer with a final DMSO concentration of 0.5%. […] In all cases a titration was performed with either seven 2-fold dilutions or five 3-fold dilutions. […]
(In general: SPR reads the build-up and loss of mass on a sensor chip optically.)

Starred links: 1 amine or outer side, 2 acyl side, 3 side chain; linkers in the order of their positions; H or OH if unused. Positions of bridges follow the written chain, without caps; N, C: chain ends. *: point of attachment. TATA = O=C(CC[*:1])N1CN(C(=O)CC[*:2])CN(C(=O)CC[*:3])C1; Pent4ynoyl = C#CCCC(=O)*

B1: BCY5455 (peptide)
peptide: Pent4ynoyl-ACYMEWCDVTDYGCA-NH2
modifications: linker 2-7-14 via TATA; also: tandem dimer of 2 copies via central hinge C (GTA) and spacer S1A n=23 joined to N-terminal Pya
For B1, the Kd was found to be 1250 nM.

By Kd is commonly meant the free concentration of one partner at which half of the binding sites on the other are occupied at equilibrium, for simple one-to-one binding.
